Test results as given in publication PMC4323794.
Where two headings read alike, the source gives them in different places.

What was measured:
[1] = target: GpIbα‐Fc fusion protein; test: SPR
[2] = target: ΔD′D3‐VWF lacking the NFP (ΔD′D3NFP‾‐VWF) (human) (UniProt P04275); test: ELISA
[3] = target: Dimeric full‐length VWF (ΔPro‐VWF) (human) (UniProt P04275); test: ELISA
[4] = target: ΔD′D3‐VWF lacking the NFP (ΔD′D3NFP‾‐VWF) (human) (UniProt P04275); test: ELISA; remark: listed apart in the source
[5] = target: ΔD′D3‐VWF with Ala mutations replacing Thr/Ser (ΔD′D3OG‾‐VWF) (human) (UniProt P04275); test: ELISA
[6] = target: GpIbα‐Fc fusion protein; test: ELISA

Kd [1] [nM] | Kd [6] [nM] | also measured | Substance
1200 |  |  | VWF‐A1 (monomeric A1 domain with the N‐terminal flanking peptide) (from UniProt P04275 1243-1480) (domain or fragment)
 |  | Kd [2]: 7.5 nM; Kd [3]: 15 nM; Kd [4]: 7 nM; Kd [5]: 5 nM | GpIbα‐Fc fusion protein
 | 102 |  | Dimeric full‐length VWF (ΔPro‐VWF) (from UniProt P04275 764-2813) (natural protein)
 | 2.4 |  | ΔD′D3‐VWF with Ala mutations replacing Thr/Ser (ΔD′D3OG‾‐VWF) (from UniProt P04275 1243-2813) (domain or fragment)
 | 0.7 |  | ΔD′D3‐VWF lacking the NFP (ΔD′D3NFP‾‐VWF) (from UniProt P04275 1267-2813) (domain or fragment)
1700 |  |  | D′D3‐A1 (from UniProt P04275 764-1480) (domain or fragment)
